Results published in paper PMC7418779.
pKd: −log10 of the molar value.

Target: human platelet actin (non-muscle actin), used as monomeric ATP-G-actin or as pre-formed F-actin (human) (UniProt P60709)
Test: co-sedimentation

Substance | pKd | percent remaining in supernatant (not pelleted with F-actin)
FLAG-tagged SHTN1L lacking CCD-I (1L-ΔCCD-I), purified (domain or fragment) | 7.66 | –
FLAG-tagged SHTN1L, full length, purified (from UniProt Q8K2Q9 1-631) (natural protein) | 6.78 | 50%
